The values below come from patent US20230212304A1 (BIOSION, published 2023).

In test [1] the target is T1, recombinant human CTLA4 protein with human IgG1 Fc tag at the C-terminus (Acro biosystems, Cat#CT4-H5255) (human, UniProt P16410 37-162).
T1 construct: bought protein; also called human CTLA4-Fc; CTLA4-Fc; not shown: human IgG1 Fc tag at the C-terminus
T1 sequence (looked up): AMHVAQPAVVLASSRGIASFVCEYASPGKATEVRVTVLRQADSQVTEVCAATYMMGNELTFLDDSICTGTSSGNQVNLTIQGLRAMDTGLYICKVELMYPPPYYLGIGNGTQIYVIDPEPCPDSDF
Description: capture ELISA (plate coated with goat anti-human IgG F(ab')2 per paragraph 181), biotin human CTLA4-Fc, streptavidin-HRP, OD(450-630). How it is done:
(§1) Plates were washed once with wash buffer (PBS+0.05% v/v Tween-20, PBST) and then blocked with 200 µl/well blocking buffer (PBST with 5% w/v non-fatty milk) for 2 hours at 37° C. […] After a final wash, plates were incubated with 100 µl/well substrate TMB (Innoreagents, Cat#TMB-S-002). The reaction was stopped in 15 minutes at room temperature with 50 µl/well 1M H₂SO₄, and the absorbance of the each well was read on a microplate reader using dual wavelength mode with 450 nm for TMB and 630 nm as the reference wavelength, then the OD (450-630) values were plotted against antibody concentration. Data was analyzed using Graphpad Prism software and EC₅₀ values were reported.
(§2) In the capture ELISA assay, the 96-well micro plates were coated with 2 µg/ml goat anti-human IgG (AffiniPure Goat Anti-Human IgG, F(ab′)₂ fragment specific, Jackson Immunoresearch, Cat#109-005-097) instead of the goat anti-mouse IgG F(ab′)₂ fragment, 100 µl/well.
For orientation: In an ELISA, binding on a coated surface is turned into a signal by an enzyme label.

The target in test [2] is T2, recombinant human CTLA4-his protein (Acro biosystems, Cat#CT4-H5229) (human, UniProt P16410 37-162).
T2 construct: bought recombinant protein; not shown: his tag
T2 sequence (looked up): T1 sequence (looked up)
Description: SPR, Biacore; antibody captured on anti-human IgG CM5 chip, CTLA4-his as analyte. How it is done: (§3) Un-reacted moieties on the biosensor surface were blocked with ethanolamine. […] The antigen-antibody association kinetics was followed for 2 minutes and the dissociation kinetics was followed for 10 minutes. The association and dissociation curves were fit to a 1:1 Langmuir binding model using BIAcore evaluation software. […]
In general terms: In SPR one partner is held on a chip, and binding of the other changes the refractive index at the surface.

Test [3] deals with T3, cynomolgus monkey CTLA4-his protein (Acro biosystems, Cat#CT4-C5227) (cynomolgus monkey, UniProt G7PL88 36-161).
T3 construct: bought recombinant protein; also called Cynomolgus CTLA4-his; not shown: his tag
T3 sequence: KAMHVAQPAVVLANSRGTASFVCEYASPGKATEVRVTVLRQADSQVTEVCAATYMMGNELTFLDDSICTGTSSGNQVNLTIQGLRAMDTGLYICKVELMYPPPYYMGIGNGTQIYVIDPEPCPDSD
The test is described as above. The protocol: as §3

Test [4] concerns the target T1, recombinant human CTLA4 protein with …. Description: cell based blocking FACS: antibody pre-mixed with human CTLA4-Fc, added to Daudi cells; blocked ligands: cell surface CD80/CD86. The protocol:
(§4) Daudi cells were harvested from cell culture flasks at the log phase, washed twice and re-suspended in PBS containing 2% v/v Fetal Bovine Serum (FACS buffer). […] Cells were washed twice and re-suspended in FACS buffer. Fluorescence was measured using a Becton Dickinson FACS Canto II-HTS equipment. Data was analyzed using Graphpad Prism software and IC₅₀ values were reported.
as §2

The target is the same in test [5]. Nature of the test: cell-based or functional assay.
Test [6] shares this target. Nature of the test: competitive ELISA: antibody pre-mixed with biotin human CTLA4-Fc, added to plate coated with the benchmark; competitor: coated Yervoy. The protocol:
(§5) Plates were washed once with wash buffer, blocked with 200 µl PBST with 5% w/v non-fatty milk, incubated for 2 hours at 37° C., and washed 4 times.
(§6) After incubation at 37° C. for 40 minutes, plates were washed 4 times again using wash buffer. Then the plates were added and incubated with 100 µl/well streptavidin conjugated HRP (1:10000 dilution in PBST, Jackson Immuno Research, Cat#016-030-084, 100 µl/well) for 40 minutes at 37° C. Plates were finally washed using wash buffer. Finally, TMB was added and the reaction was stopped using 1M H₂SO₄, and the absorbance of the each well was read on a microplate reader using dual wavelength mode with 450 nm for TMB and 630 nm as the reference wavelength, then the OD (450-630) values were plotted against antibody concentration. Data was analyzed using Graphpad Prism software and IC₅₀ values were reported.
as §2

Test [7] concerns the target T2, recombinant human CTLA4-his protein …. Nature of the test: BLI, Octet; antibody from cell supernatant on AHC sensor, CTLA4-his as analyte. The protocol:
(§7) Briefly, AHC biosensors (anti-human IgG Fc capture, from ForteBio) were presoaked with 10 mM glycine (pH 1.5) for 3 seconds, and then dipped in a well with running buffer (0.5% w/v BSA in PBST) for 3 seconds, the soaking and dipping steps were repeated for three times. […] A new baseline was run for 180 seconds in another well with running buffer. […] Finally, sensors were presoaked with 10 mM glycine (pH 1.5) for 3 seconds, and then were dipped in a well with running buffer for 3 seconds, the soaking and dipping steps repeated for three times. The association and dissociation curves were fit to a 1:1 Langmuir binding model using ForteBio Data Analysis 8.1.
(BLI is a label-free optical method that tracks binding on a fibre tip over time.)

The target in test [8] is T1, recombinant human CTLA4 protein with …. Description: capture ELISA: antibody captured on anti-mouse IgG F(ab')2 coated plate, biotin human CTLA4-Fc 26 ng/ml, streptavidin-HRP, OD(450-630). How it is done: as §1
For test [9] the target is unchanged. Description: cell based blocking FACS: antibody pre-mixed with human CTLA4-Fc (1 ug/mL), added to Daudi cells; blocked ligands: cell surface CD80/CD86. The protocol:
as §4

Test [10] has the same target. Nature of the test: cell-based or functional assay. This is another data set of the same source.
The target is the same in test [11]. Description: competitive ELISA: antibody pre-mixed with biotin human CTLA4-Fc (65 ng/ml), added to plate coated with the benchmark; competitor: coated Yervoy. How it is done: as §5, §6
Test [12] has as its target T2, recombinant human CTLA4-his protein …. Nature of the test: SPR, Biacore T200; antibody captured, CTLA4-his as analyte. The protocol:
(§8) Un-reacted moieties on the biosensor surface were blocked with ethanolamine. […] The antigen-antibody association kinetics was followed for 2 minutes and the dissociation kinetics was followed for 10 minutes. The association and dissociation curves were fit to a 1:1 Langmuir binding model using BIAcore evaluation software.

For test [13], the target named is T3, cynomolgus monkey CTLA4-his protein …. The description is as above. How it is done: as §8
In test [14] the target is T1, recombinant human CTLA4 protein with …. Nature of the test: cell based blocking FACS: antibody pre-mixed with human CTLA4-Fc, added to Daudi cells; blocked ligands: cell surface CD80/CD86. This is another data set of the same source.
The target is the same in test [15]. Nature of the test: capture ELISA: antibody captured on coated plate (anti-human IgG Fc for the chimeric antibodies), biotin human CTLA4-Fc, streptavidin-HRP, OD(450-630). The protocol:
as §1
For the capture ELISA, AffiniPure Goat Anti-Human IgG, Fcy fragment specific (Jackson Immuno Research, Cat#109-005-008) was used instead of AffiniPure Goat Anti-Mouse IgG, F(ab′)₂ fragment specific, 100 µl/well.

For test [16], the target named is T2, recombinant human CTLA4-his protein …. Nature of the test: BLI, Octet; antibody at 5 ug/ml on AHC sensor, CTLA4-his as analyte. How it is done: as §7
The target is the same in test [17]. Description: BLI, Octet RED96; antibody on AHC sensor, CTLA4-his as analyte. The protocol:
as §7

Where two headings read alike, the source gives them in different places.

B1: huC1D1-V8 (antibody, human IgG4 S228P, kappa, V domains shown)
VH: EVQLVESGGGLVQPGRSLRLSCTASGFTFSDNWMNWVRQAPGKGLEWVGQIRNKPYNYETYYSDSVKGRFTISRDDSKSIAYLQMNSLKTEDTAVYYCTGGMDYWGQGTTVTVSS
VL: DIQMTQSPSSLSASVGDRVTITCGASEIIYGALNWYQQKPGKSPKLLIYGATNLADGVPSRFSGSGSGTDFTLTISSLQPEDVATYYCQKILSPPPWTFGGGTKVEIKR
notes: humanized IgG4/kappa; cell supernatant on Octet, purified antibody in Biacore, ELISA, FACS and the functional assay; also called hu CTLA4 C1D1-V8
Turning to B1, the EC50 in [1] came to 0.746 nM. The Kd stood at 12 nM in [2], 7.49 nM in test [3] and 0.614 nM in test [7]. Also, the koff in test [2] was determined as 0.00086 s⁻¹; in test [3], 0.00112 s⁻¹; in test [7], 0.00019 s⁻¹. The kon in test [2] amounted to 71900 M⁻¹ s⁻¹; in [3], 150000 M⁻¹ s⁻¹; in [7], 309000 M⁻¹ s⁻¹. For the same molecule, the results for the IC50 in [4] and in [6] were 5.74 nM and 1.71 nM, respectively. The “EC50 of IL-2 release (GS-J1 T cells + GS-C1/CD80 cells + human CTLA4-Fc, IL-2 HTRF)” value (from here on “EC50 of IL-2 release”) in test [5] amounted to 28.7 nM.

B2: mouse anti-CTLA4 monoclonal antibody C1D1 (antibody, V domains shown)
VH: EVKLDETGGGLVQPGRPLKLSCVASGFTFSDNWMNWVRQSPEKGLEWVAQIRNKPYNYETYYSDSVKGRFTISRDDSKSSVYLQMNNLRVEDMGIYYCTGGMDYWGQGTSVTVSS
VL: DIQMTQSPASLSASVGETVTITCGASEIIYGALNWYQQKQGKSPQLLIYGATNLADGMSSRFSGSGSGRQYSLKISSLHPDDAATYYCQKILSPPPWTFGGGTKLEIK
notes: mouse mAb purified from hybridoma supernatant
As to B2, the values for the EC50 in test [1], in [8] and in test [15] were 0.121 nM, 0.0479 nM and 0.445 nM, respectively. For the same molecule, the IC50 was 6.22 nM in test [9]; approximately 9.72 nM in test [4]; 0.338 nM in test [11]; 0.8 nM in test [6]; approximately 11.6 nM in test [14]. Besides, the “EC50 of IL-2 release” value in test [10] is 35.1 nM; in test [5], 30 nM. The figures for the Kd in test [12] and in test [13] were 0.399 nM and 0.183 nM, respectively. Besides, the values for the koff in [12] and in test [13] were 0.0001 s⁻¹ and 8.76e-05 s⁻¹, respectively. Moreover, the kon turned out to be 251000 M⁻¹ s⁻¹ in test [12] and 478000 M⁻¹ s⁻¹ in [13].

B3: chimeric C1D1 anti-CTLA4 antibody (antibody, human IgG4 S228P, kappa, V domains shown)
VH: B2 VH
VL: DIQMTQSPASLSASVGETVTITCGASEIIYGALNWYQQKQGKSPQLLIYGATNLADGMSSRFSGSGSGRQYSLKISSLHPDDAATYYCQKILSPPPWTFGGGTKLEIKR
notes: mouse variable domains on human IgG4/kappa, made in 293F cells
For the molecule B3, the EC50 in test [1] stood at 0.156 nM; in test [15] it was 0.505 nM. Further, the Kd in test [2] was 0.629 nM; in [3], 0.243 nM; in test [16], less than 0.001 nM; in test [17], 0.335 nM. The koff in test [2] is 0.000422 s⁻¹; in test [3], 0.000398 s⁻¹; in test [16], less than 1e-07 s⁻¹; in [17], 0.000296 s⁻¹. For the same molecule, the kon in [2] was 670000 M⁻¹ s⁻¹; in [3], 1.64e+06 M⁻¹ s⁻¹; in test [16], 525000 M⁻¹ s⁻¹; in test [17], 884000 M⁻¹ s⁻¹. In addition, the IC50 was approximately 9.96 nM in test [4], 2.11 nM in [6] and 8.56 nM in [14]. Also, the “EC50 of IL-2 release” value in [5] was determined as 34 nM.

What is called EC50 is the concentration giving half of the maximal effect. The Kd is the constant that tells how readily two partners part at equilibrium. What is called koff is the rate constant with which the complex falls apart. The term kon denotes the second-order rate constant of association. A word on the IC50: it is the midpoint of a concentration-inhibition curve.
